This experiment deals with JASPer protein (1-475) (Drosophila). Put plainly: MST; label-free (Monolith NT.LabelFree); JASPer constant at 0.4 uM, reconstituted nucleosomes in a 16-step dilution series (0.5 nM up to 16 uM); 20 mM HEPES pH 7.5, 50 mM NaCl, 1 mM TCEP, 0.05% Tween 20; 24 C; fitted as specific binding with Hill slope.
The term Kd denotes the concentration at which binding is half-saturated. Low values mean a tighter complex, high ones a looser complex. With “unmodified mononucleosome (147 bp, H3K36me0) (complex)”, the Kd stood at 4000 nM.
In the case of “H3K36me2 mononucleosome (147 bp) (complex)” it was 320 nM.
Turning to “H3K36me3 mononucleosome (147 bp) (complex)”, the Kd stood at 600 nM.

The record behind these values is publication PMC12262051.
